Where only a bound is given, the exact number is not on record here.

Common to all, as to experiment: cell-based or functional assay
The target in test [1] is HIV-1 93IN905 envelope glycoprotein (Env) (HIV-1).
Test [2] concerns the target HIV-1 APV13 envelope glycoprotein (Env) (HIV-1).
Test [3] concerns the target HIV-1 APV6 envelope glycoprotein (Env) (HIV-1).
The target of test [4] is HIV-1 CMU02 envelope glycoprotein (Env) on virus (HIV-1, clade AE, isolate CMU02).
Test [5] addresses HIV-1 MGRM-D-001 envelope glycoprotein (Env) on virus (HIV-1, clade D, isolate MGRM-D-001).
Test [6] has as its target HIV-1 92RW020 envelope glycoprotein (Env), clade A pseudovirus (HIV-1).
The target in test [7] is HIV-1 MGRM-A-010 envelope glycoprotein (Env), clade A pseudovirus (HIV-1).
Test [8] addresses HIV-1 MGRM-C-028 envelope glycoprotein (Env), clade C pseudovirus (HIV-1).
The target in test [9] is HIV-1 Env of pseudovirus THRO.18 (HIV-1).
The target of test [10] is HIV-1 Env of pseudovirus ZM233 (HIV-1).
Test [11] has as its target HIV-1 envelope glycoprotein (Env) of isolate 92UG005 (HIV-1).
Test [12] concerns the target HIV-1 envelope glycoprotein (Env) of isolate APV17 (HIV-1).
In test [13] the target is HIV-1 Env of isolate MG RM-C-020 (HIV-1).
The target of test [14] is HIV-1 Env of isolate MGRM-Chronic-B-011 (subtype B), on pseudovirus (HIV-1).
Test [15] has as its target HIV-1 envelope glycoprotein (Env) of isolate MG RM-A-004 (HIV-1).
Test [16] addresses HIV-1 JRCSF Env (pseudovirus) (HIV-1) (UniProt P20871).
Test [17] deals with HIV-1 JR-CSF Env N339A (HIV-1 isolate JR-CSF) (UniProt P20871).

Sequence of 5329_C19 (PGT-136) (antibody) (VH): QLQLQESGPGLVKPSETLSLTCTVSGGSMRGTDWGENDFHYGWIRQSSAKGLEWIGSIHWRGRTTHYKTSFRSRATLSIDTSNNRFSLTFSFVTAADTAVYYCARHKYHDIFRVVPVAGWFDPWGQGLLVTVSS
Sequence of 5329_C19 (PGT-136) (antibody) (VL): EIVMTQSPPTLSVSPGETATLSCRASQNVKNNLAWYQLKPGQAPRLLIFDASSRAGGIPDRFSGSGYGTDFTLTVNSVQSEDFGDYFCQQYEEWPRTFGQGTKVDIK
Sequence of 1443_C16 (PG16) (TCN-116) (antibody) (VH): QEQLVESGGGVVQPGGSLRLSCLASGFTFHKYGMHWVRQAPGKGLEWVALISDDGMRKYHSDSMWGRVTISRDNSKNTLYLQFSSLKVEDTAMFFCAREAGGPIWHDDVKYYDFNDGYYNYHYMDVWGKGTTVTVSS
Sequence of 1443_C16 (PG16) (TCN-116) (antibody) (VL): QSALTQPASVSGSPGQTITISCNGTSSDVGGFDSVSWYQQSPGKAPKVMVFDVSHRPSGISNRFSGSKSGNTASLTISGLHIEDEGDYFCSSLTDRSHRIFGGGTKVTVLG

In test [1], 5329_C19 (PGT-136) (antibody) yielded a Neutralization IC80 of 0.0623 µg/mL, a Neutralization IC90 of 0.156 µg/mL, a Neutralization IC95 of 0.379 µg/mL and a neutralization IC50 of 0.0135 µg/mL. Moreover, in [2], the Neutralization IC80 is > 10 µg/mL, the Neutralization IC90 is > 10 µg/mL, the Neutralization IC95 was > 10 µg/mL and the neutralization IC50 was > 10 µg/mL. Further, in [3], the Neutralization IC80 was > 10 µg/mL, the Neutralization IC90 is > 10 µg/mL, the Neutralization IC95 was > 10 µg/mL and the neutralization IC50 is > 10 µg/mL.

Regarding 4877_D15 (PGT-122) (antibody), in test [4], the Neutralization IC80 is > 10 µg/mL, the Neutralization IC90 was > 10 µg/mL, the Neutralization IC95 is > 10 µg/mL and the neutralization IC50 is > 10 µg/mL. Moreover, in test [5], the Neutralization IC80 was 4.48 µg/mL, the Neutralization IC90 is > 10 µg/mL, the Neutralization IC95 is > 10 µg/mL and the neutralization IC50 came out at 0.867 µg/mL.

For the substance 4858_P08 (PGT-123) (antibody), in [6], the IC50, pseudovirus neutralization was found to be 0.0038 µg/mL; the IC80 (pseudovirus neutralization) came to 0.0106 µg/mL; the IC90 (pseudovirus neutralization) came to 0.0194 µg/mL; the IC95 (pseudovirus neutralization) was 0.0343 µg/mL. Moreover, in [7], the IC50, pseudovirus neutralization was found to be 0.492 µg/mL; the IC80 (pseudovirus neutralization) amounted to 2.79 µg/mL; the IC90 (pseudovirus neutralization) is 6.44 µg/mL; the IC95 (pseudovirus neutralization) is > 10 µg/mL. In [8], the IC50, pseudovirus neutralization is 0.443 µg/mL; the IC80 (pseudovirus neutralization) was 2.8 µg/mL; the IC90 (pseudovirus neutralization) was found to be 7.11 µg/mL; the IC95 (pseudovirus neutralization) is > 10 µg/mL.

For the substance 1443_C16 (PG16) (TCN-116) (antibody), the IC50, pseudovirus neutralization (TZM-bl assay) was 2.19 µg/mL in [9] and < 0.01 µg/mL in [10].

Take 5141_B17 (PGT-126) (antibody): in test [11], the Neutralization IC80 came out at 0.145 µg/mL, the Neutralization IC90 was 0.553 µg/mL, the Neutralization IC95 amounted to 2.45 µg/mL and the neutralization IC50 came to 0.0181 µg/mL. In test [12], the Neutralization IC80 was 4.43 µg/mL, the Neutralization IC90 is > 10 µg/mL, the Neutralization IC95 was > 10 µg/mL and the neutralization IC50 came to 0.501 µg/mL.

PGV04 (antibody) came in with an IC50 (µg/mL), pseudovirus neutralization in [13] of 0.112 µg/mL. Further, the IC50, single-round pseudovirus neutralization in test [14] is 0.497 µg/mL. For the same substance, the IC50 (usually the concentration needed to halve the response being measured) in test [15] worked out at 0.175 µg/mL.

Take 5123_A06 (PGT-125) (antibody): in test [16], the Neutralization by PGT-125, IC50 was determined as 0.006 µg/mL; the Neutralization by PGT-125, IC80 turned out to be 0.0196 µg/mL; the Neutralization by PGT-125, IC90 is 0.0392 µg/mL; the Neutralization by PGT-125, IC95 turned out to be 0.0741 µg/mL.

In [17], 5147_N06 (PGT-130) (antibody) showed a Fold IC50 increase relative to wild-type of 0.2 fold.

The values are drawn from patent US20240132578A1.
